Laboratory results reported in patent US20190218304A1 (INNATE PHARMA, published 2019).

How the values were obtained:
[1] = biological target: T1, human CD39 expressed on cells (human, UniProt P49961 1-510); experiment: cell-based or functional assay
T1 sequence: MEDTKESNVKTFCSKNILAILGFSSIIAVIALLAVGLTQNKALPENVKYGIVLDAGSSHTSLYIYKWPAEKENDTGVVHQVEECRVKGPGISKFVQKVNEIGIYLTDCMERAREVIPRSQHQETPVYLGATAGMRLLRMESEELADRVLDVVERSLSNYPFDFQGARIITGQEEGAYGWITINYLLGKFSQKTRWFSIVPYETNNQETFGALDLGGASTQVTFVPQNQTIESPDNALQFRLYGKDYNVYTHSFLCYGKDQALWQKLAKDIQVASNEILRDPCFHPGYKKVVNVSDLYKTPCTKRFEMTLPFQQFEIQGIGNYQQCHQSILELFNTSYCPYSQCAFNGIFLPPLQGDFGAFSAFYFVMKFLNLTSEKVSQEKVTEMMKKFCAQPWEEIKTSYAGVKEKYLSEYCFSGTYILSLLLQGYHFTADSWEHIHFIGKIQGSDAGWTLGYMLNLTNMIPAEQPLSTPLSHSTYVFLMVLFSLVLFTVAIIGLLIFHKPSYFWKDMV

[2] = biological target: T2, recombinant human CD39-M2 extracellular domain protein (human, UniProt P49961 38-478); experiment: cell-based or functional assay
T2 sequence: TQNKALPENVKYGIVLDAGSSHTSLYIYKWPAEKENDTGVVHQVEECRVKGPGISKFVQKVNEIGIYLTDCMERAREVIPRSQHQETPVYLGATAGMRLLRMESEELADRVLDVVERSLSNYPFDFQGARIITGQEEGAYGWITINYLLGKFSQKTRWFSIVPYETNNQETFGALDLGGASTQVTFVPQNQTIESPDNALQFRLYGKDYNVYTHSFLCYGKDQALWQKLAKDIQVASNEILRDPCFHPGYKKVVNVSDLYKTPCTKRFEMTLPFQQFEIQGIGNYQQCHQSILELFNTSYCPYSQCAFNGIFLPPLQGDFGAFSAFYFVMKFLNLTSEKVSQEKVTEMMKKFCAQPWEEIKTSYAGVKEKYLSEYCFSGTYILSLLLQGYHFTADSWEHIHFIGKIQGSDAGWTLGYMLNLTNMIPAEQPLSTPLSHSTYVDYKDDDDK

Human CD39-L3 = biological target: T3, Human CD39-L3 (human, UniProt O75355 44-485, limits assumed); experiment: ELISA on coated recombinant human CD39-L3 [panel huCD39 L3]
T3 construct: Recombinant protein coated in ELISA; also called NTPDase3; ENTPD3
T3 sequence: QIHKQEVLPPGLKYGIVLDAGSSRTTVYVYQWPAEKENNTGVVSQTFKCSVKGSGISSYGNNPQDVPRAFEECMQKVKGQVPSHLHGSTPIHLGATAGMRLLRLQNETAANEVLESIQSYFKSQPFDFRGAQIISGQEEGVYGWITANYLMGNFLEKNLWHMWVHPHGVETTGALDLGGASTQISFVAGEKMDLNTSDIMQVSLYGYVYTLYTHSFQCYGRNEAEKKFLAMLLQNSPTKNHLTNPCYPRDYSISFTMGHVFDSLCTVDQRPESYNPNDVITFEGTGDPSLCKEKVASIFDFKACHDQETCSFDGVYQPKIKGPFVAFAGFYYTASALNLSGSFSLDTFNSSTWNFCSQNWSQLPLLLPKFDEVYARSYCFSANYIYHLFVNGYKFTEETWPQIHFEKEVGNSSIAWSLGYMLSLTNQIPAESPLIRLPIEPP
Procedure: Wells were washed in TBS Tween 20, and further saturated 2H at RT in TBS Blocking buffer. Dose range concentration of primary antibody was incubated in TBS blocking buffer for 2 h at RT. Wells were washed in TBS Tween 20. […] Optical density was measured on Enspire™ at OD=450.

CD39 mutant 19 = biological target: T4, CD39 mutant 19 (human, UniProt P49961 1-510); experiment: flow cytometry on Hek-293T cells transfected with CD39 mutant 19 [panel M19]
T4 construct: Expressed on transfected Hek-293T cells; also called M19
T4 chain: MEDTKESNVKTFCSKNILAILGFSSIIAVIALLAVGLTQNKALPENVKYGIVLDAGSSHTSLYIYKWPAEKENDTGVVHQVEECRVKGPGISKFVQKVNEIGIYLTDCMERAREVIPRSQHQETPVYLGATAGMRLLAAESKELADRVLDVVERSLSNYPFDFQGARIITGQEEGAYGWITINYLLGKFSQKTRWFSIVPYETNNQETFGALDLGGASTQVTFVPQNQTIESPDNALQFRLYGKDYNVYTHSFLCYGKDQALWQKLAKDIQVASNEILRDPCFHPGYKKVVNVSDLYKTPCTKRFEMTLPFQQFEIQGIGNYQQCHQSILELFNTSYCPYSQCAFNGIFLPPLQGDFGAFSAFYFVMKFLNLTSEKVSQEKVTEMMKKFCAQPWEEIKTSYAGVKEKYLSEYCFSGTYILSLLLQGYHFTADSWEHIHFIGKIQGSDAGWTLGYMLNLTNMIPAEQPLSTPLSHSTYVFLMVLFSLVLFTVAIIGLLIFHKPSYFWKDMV

[3] = biological target: T1, human CD39 expressed on cells; experiment: flow cytometry titration on Ramos lymphoma cells, first experiment; Ramos cells, first set of experiments
Procedure: (§1) Cells were incubated with various concentration of unlabeled anti-CD39 antibody from 30 μg/ml to 5×10⁻⁴ μg/ml, for 30 minutes at 4° C. After washes, cells were incubated with Goat anti-mouse H+L labeled secondary antibody for 30 min at 4° C.

[4] = biological target: T1, human CD39 expressed on cells; experiment: flow cytometry titration on Ramos lymphoma cells, second experiment; Ramos cells, second set of experiments
Procedure: as §1

B1: antibody I-394 (antibody, human IgG1, kappa, V domains shown)
VH: EVQLQQSGPELVKPGASVKMSCKASGYTFTDYNMHWVKQSHGRTLEWIGYIVPLNGGSTFNQKFKGRATLTVNTSSRTAYMELRSLTSEDSAAYYCARGGTRFAYWGQGTLVTVSA
VL: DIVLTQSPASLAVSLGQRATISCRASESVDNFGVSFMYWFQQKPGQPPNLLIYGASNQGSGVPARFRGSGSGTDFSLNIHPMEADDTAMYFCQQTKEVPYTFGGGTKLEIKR
notes: The hybridoma-derived mouse form was used in early screening
IC50 (inhibition of 50% of the enzymatic activity of CD39 expressed by 50,000 Ramos cells) [1]: 0.05 µg/mL
IC50, inhibition of the ATPase activity of soluble CD39 protein [2]: 0.003 µg/mL
binding result (Human CD39-L3): no binding
binding result (CD39 mutant 19): no binding
EC50 [3]: 0.16 µg/mL
EC50 [4]: 0.19 µg/mL
